Variants at the floor of the assay were thinned out.
Columns and labels:
biotinyl-Leu-oxazolone = assay: self-aminoacylation, catalytic enhancement (BLO) (fold over background); higher = more active; k-Seq, kA / k0A0; sequences stand for … in GGGAAUGGAUCCACAUCUACGAAUUC…UUCACUGCAGACUUGACGAAGCUG
How it was run: (§1)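 Working in 50 μL HEPES/NaCl/KCl/MgCl2/CaCl2 buffer with 5% acetonitrile at pH 6.9–7.0, mutagenized RNA pools (0.43 μM; 21-nt variable region) were reacted with 2–1250 μM of each biotinyl-aminoacyl-oxazolone for 90 minutes at room temperature. Streptavidin capture followed, with quantification by triplicate qPCR and Illumina sequencing. Catalytic enhancement is reported as median kA over the uncatalyzed rate, the low-activity peak of a bimodal Gaussian fit to the data.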

biotinyl-Phe-oxazolone = assay: self-aminoacylation, catalytic enhancement (BFO) (fold over background); higher = more active; k-Seq, kA / k0A0; sequences stand for … in GGGAAUGGAUCCACAUCUACGAAUUC…UUCACUGCAGACUUGACGAAGCUG
How it was run: as §1

biotinyl-Trp-oxazolone = assay: self-aminoacylation, catalytic enhancement (BWO) (fold over background); higher = more active; k-Seq, kA / k0A0; sequences stand for … in GGGAAUGGAUCCACAUCUACGAAUUC…UUCACUGCAGACUUGACGAAGCUG
How it was run: as §1

biotinyl-Ile-oxazolone = assay: self-aminoacylation, catalytic enhancement (BIO) (fold over background); higher = more active; k-Seq, kA / k0A0; sequences stand for … in GGGAAUGGAUCCACAUCUACGAAUUC…UUCACUGCAGACUUGACGAAGCUG
How it was run: as §1

biotinyl-Met-oxazolone = assay: self-aminoacylation, catalytic enhancement (BMO) (fold over background); higher = more active; k-Seq, kA / k0A0; sequences stand for … in GGGAAUGGAUCCACAUCUACGAAUUC…UUCACUGCAGACUUGACGAAGCUG
How it was run: as §1

biotinyl-Val-oxazolone = assay: self-aminoacylation, catalytic enhancement (BVO) (fold over background); higher = more active; k-Seq, kA / k0A0; sequences stand for … in GGGAAUGGAUCCACAUCUACGAAUUC…UUCACUGCAGACUUGACGAAGCUG
How it was run: as §1

Row | Sequence | self-aminoacylation (biotinyl-Leu-oxazolone) | self-aminoacylation (biotinyl-Phe-oxazolone) | self-aminoacylation (biotinyl-Trp-oxazolone) | self-aminoacylation (biotinyl-Ile-oxazolone) | self-aminoacylation (biotinyl-Met-oxazolone) | self-aminoacylation (biotinyl-Val-oxazolone)
1 | AUUACCCUUUUCAUCGAGUGA [Fam2.1 aminoacylation ribozyme variant] | 6.32 | 25.2 | 7.27 | 2.88 | 6.39 | 3.68
2 | CUACAUCAAACAAUCGGUCAG [Fam1A.1 aminoacylation ribozyme variant] | 0.56 | 0.912 | 0.586 | 0.629 | 0.759 | 0.714
3 | AAGUUUGCUUAUAGUUGCAAG [Fam3.1 aminoacylation ribozyme variant] | 0.894 | 0.81 | 0.591 | 0.877 | 0.919 | 0.987
4 | CAACUCCAAACAAUCGGUCUG [Fam1A.1 aminoacylation ribozyme variant] | 1.1 | 6.95 | 3.05 | 1.31 | 1.36 | 1.14
5 | CUACAUCAAACAAACGGUCUG [Fam1A.1 aminoacylation ribozyme variant] | 0.771 | 1.01 | 1.09 | 1.07 | 1 | 0.901
6 | CCACACUUAAAGCUAUCGGUC [Fam1B.1 aminoacylation ribozyme variant] | 0.915 | 0.762 | 0.89 | 1.03 | 0.887 | 1.1
7 | AUUACCCUGGUCAGCUAGUGA [Fam2.1 aminoacylation ribozyme variant] | 3.32 | 6.76 | 3.12 | 2.53 | 3.32 | 2.34
8 | CUACUUCAAACAUUCGCUCUG [Fam1A.1 aminoacylation ribozyme variant] | 1.24 | 3.16 | 0.81 | 1.07 | 1.12 | 0.985
9 | CCACUUGAAACAAUCGGUCUG [Fam1A.1 aminoacylation ribozyme variant] | 1.03 | 0.824 | 0.785 | 1.15 | 1.19 | 1.18
10 | CCACACUUCAAGUAAUCGGAC [Fam1B.1 aminoacylation ribozyme variant] | 0.696 | 0.783 | 1.05 | 0.743 | 0.826 | 0.907
11 | CUACUUCAACCAAUCUGUCUG [Fam1A.1 aminoacylation ribozyme variant] | 0.485 | 2.12 | 0.777 | 0.597 | 0.504 | 0.592
12 | AAGUUUCCUAAUAGUGGCAAG [Fam3.1 aminoacylation ribozyme variant] | 0.642 | 0.605 | 0.634 | 0.838 | 0.752 | 0.902
13 | AUUCAGCUAGGUCAUCGGGUU [Fam2.2 aminoacylation ribozyme variant] | 2.5 | 18.7 | 3.38 | 2.81 | 3.1 | 2.79
14 | AUUCCCCUAGGUCAUCGGGUA [Fam2.2 aminoacylation ribozyme variant] | 8.16 | 58.9 | 10.2 | 7.47 | 7.28 | 7.57
15 | CCACACUUCAAGCAUUCGGGC [Fam1B.1 aminoacylation ribozyme variant] | 1.79 | 1.51 | 2.99 | 2.54 | 2.37 | 2.83
16 | AAGUUUGUUAAUAGUCACAAG [Fam3.1 aminoacylation ribozyme variant] | 0.749 | 1.16 | 0.701 | 1.06 | 0.982 | 0.941
17 | CUACUUCACACAAACGGUCUG [Fam1A.1 aminoacylation ribozyme variant] | 0.746 | 1.07 | 0.616 | 0.771 | 0.626 | 0.746
18 | ACUACCCUGGUUAUCGAGUGA [Fam2.1 aminoacylation ribozyme variant] | 8.45 | 33.1 | 7.91 | 3.67 | 7.03 | 4.43
19 | CCCCACUUCAAGCAAACGGUC [Fam1B.1 aminoacylation ribozyme variant] | 1.03 | 2.34 | 1.67 | 1.33 | 1.36 | 1.41
20 | AAGUUUGUUAAUAGUCGCACG [Fam3.1 aminoacylation ribozyme variant] | 1.22 | 1.4 | 1.04 | 1.04 | 1.12 | 0.925
21 | AUUCACCUAGGUCAUCGUUUG [Fam2.2 aminoacylation ribozyme variant] | 0.556 | 0.512 | 0.31 | 0.592 | 0.542 | 0.771

Row | Sequence | self-aminoacylation (biotinyl-Leu-oxazolone) | self-aminoacylation (biotinyl-Phe-oxazolone) | self-aminoacylation (biotinyl-Trp-oxazolone) | self-aminoacylation (biotinyl-Ile-oxazolone) | self-aminoacylation (biotinyl-Met-oxazolone) | self-aminoacylation (biotinyl-Val-oxazolone)
22 | CCACACUUCAGGCAAUUGGUC [Fam1B.1 aminoacylation ribozyme variant] | 0.823 | 0.558 | 0.556 | 0.887 | 0.647 | 0.83
23 | CUACCUCAAAGAAUCGGUCUG [Fam1A.1 aminoacylation ribozyme variant] | 0.749 | 1.97 | 1.53 | 1.07 | 1.15 | 1.07
24 | CCACACUUCAAGCAAUUGGGC [Fam1B.1 aminoacylation ribozyme variant] | 2.16 | 1 | 2.98 | 1.79 | 2.12 | 1.98
25 | AUUCACCUAGUUCAUCUGGUG [Fam2.2 aminoacylation ribozyme variant] | 2.44 | 10.4 | 2.4 | 1.56 | 1.88 | 1.5
26 | AUUCACCUAGGUCAUUGGCUG [Fam2.2 aminoacylation ribozyme variant] | 1.33 | 3.54 | 0.756 | 1.21 | 1.32 | 1.4
27 | AAGUUUGCUAAUAAUCCCAAG [Fam3.1 aminoacylation ribozyme variant] | 0.736 | 1.03 | 1.38 | 0.76 | 0.949 | 0.961
28 | AUUCACGUUGGUCAUCGGGUG [Fam2.2 aminoacylation ribozyme variant] | 12.2 | 121 | 10.1 | 6.91 | 12.5 | 8
29 | AUUACACUGGUGAUCGAGUGA [Fam2.1 aminoacylation ribozyme variant] | 4.21 | 20.9 | 5.92 | 2.33 | 4.88 | 2.42
30 | CCACACUUCAAACAAUAGGUC [Fam1B.1 aminoacylation ribozyme variant] | 0.471 | 0.995 | 0.652 | 0.617 | 0.435 | 0.656
31 | CUACUUAAAACAAUGGGUCUG [Fam1A.1 aminoacylation ribozyme variant] | 1.03 | 0.9 | 0.653 | 1.05 | 1.28 | 1.05
32 | AAUUUUGCUAAUAGUGGCAAG [Fam3.1 aminoacylation ribozyme variant] | 0.633 | 0.836 | 0.652 | 0.771 | 0.798 | 0.632
33 | AAGAGUGCUAAUAGUCGCAAG [Fam3.1 aminoacylation ribozyme variant] | 2.19 | 3.44 | 1.89 | 2.29 | 1.82 | 1.73
34 | AAUACCCUGGUCAUCGCGUGA [Fam2.1 aminoacylation ribozyme variant] | 15.7 | 118 | 16.1 | 7.23 | 16.9 | 8.98
35 | AAUUUUGCUAAUAUUCGCAAG [Fam3.1 aminoacylation ribozyme variant] | 1.57 | 1.5 | 2.15 | 1.92 | 1.55 | 1.5
36 | CUACUUCAAACUAUCGGUCGG [Fam1A.1 aminoacylation ribozyme variant] | 1.01 | 0.997 | 1.05 | 1.05 | 1.02 | 0.893
37 | AAGUUUGCUAAUAGCCGAAAG [Fam3.1 aminoacylation ribozyme variant] | 1.03 | 1.6 | 1.28 | 1.09 | 0.766 | 0.677
38 | AUUCAUCUAGGUCAUCGGUUG [Fam2.2 aminoacylation ribozyme variant] | 1.3 | 1.07 | 1.13 | 1.15 | 1.25 | 1.24
39 | AUUCAGCGAGGUCAUCGGGUG [Fam2.2 aminoacylation ribozyme variant] | 7.8 | 44 | 7.06 | 4.46 | 6 | 5.33
40 | AUUCACCUAUGUCAUCUGGUG [Fam2.2 aminoacylation ribozyme variant] | 2.51 | 1.9 | 2.01 | 1.79 | 2.04 | 1.62
41 | AUUGCCCUGCUCAUCGAGUGA [Fam2.1 aminoacylation ribozyme variant] | 1.91 | 5.55 | 1.04 | 1.22 | 1.86 | 1.61
42 | CCACACGUCAAGCAGUCGGUC [Fam1B.1 aminoacylation ribozyme variant] | 1.26 | 0.584 | 1.17 | 0.995 | 1.05 | 1.69
